Assay results taken from patent US10889629B2, “Transfected T-cells and T-cell receptors for use in immunotherapy against cancers” (IMMATICS BIOTECHNOLOGIES GMBH, priority 2016, dated 2021).
“Also recorded” adds a separate entry of the source.

B1: R7P1D5: TCR, alpha chain SEQ ID NO:55 and beta chain SEQ ID NO:63, MAG-003-specific, from HLA-A2 positive donor (protein, listed as Homo sapiens)
alpha: MKTFAGFSFLFLWLQLDCMSRGEDVEQSLFLSVREGDSSVINCTYTDSSSTYLYWYKQEPGAGLQLLTYIFSNMDMKQDQRLTVLLNKKDKHLSLRIADTQTGDSAIYFCAEYSSASKIIFGSGTRLSIRPNIQNPDPAVYQLRDSKSSDKSVCLFTDFDSQTNVSQSKDSDVYITDKTVLDMRSMDFKSNSAVAWSNKSDFACANAFNNSIIPEDTFFPSPESSCDVKLVEKSFETDTNLNFQNLSVIGFRILLLKVAGFNLLMTLRLWSS
beta: MGSWTLCCVSLCILVAKHTDAGVIQSPRHEVTEMGQEVTLRCKPISGHDYLFWYRQTMMRGLELLIYFNNNVPIDDSGMPEDRFSAKMPNASFSTLKIQPSEPRDSAVYFCASRANTGELFFGEGSRLTVLEDLKNVFPPEVAVFEPSEAEISHTQKATLVCLATGFYPDHVELSWWVNGKEVHSGVSTDPQPLKEQPALNDSRYCLSSRLRVSATFWQNPRNHFRCQVQFYGLSENDEWTQDRAKPVTQIVSAEAWGRADCGFTSESYQQGVLSATILYEILLGKATLYAVLVSALVLMAMVKRKDSRG
B2: R10P2G12: TCR, alpha chain SEQ ID NO:71 and beta chain SEQ ID NO:79, MAG-003-specific (protein, listed as Homo sapiens)
alpha: MLTASLLRAVIASICVVSSMAQKVTQAQTEISVVEKEDVTLDCVYETRDTTYYLFWYKQPPSGELVFLIRRNSFDEQNEISGRYSWNFQKSTSSFNFTITASQVVDSAVYFCALSEGNSGNTPLVFGKGTRLSVIANIQNPDPAVYQLRDSKSSDKSVCLFTDFDSQTNVSQSKDSDVYITDKTVLDMRSMDFKSNSAVAWSNKSDFACANAFNNSIIPEDTFFPSPESSCDVKLVEKSFETDTNLNFQNLSVIGFRILLLKVAGFNLLMTLRLWSS
beta: MGIRLLCRVAFCFLAVGLVDVKVTQSSRYLVKRTGEKVFLECVQDMDHENMFWYRQDPGLGLRLIYFSYDVKMKEKGDIPEGYSVSREKKERFSLILESASTNQTSMYLCASSLSSGSHQETQYFGPGTRLLVLEDLKNVFPPEVAVFEPSEAEISHTQKATLVCLATGFYPDHVELSWWVNGKEVHSGVSTDPQPLKEQPALNDSRYCLSSRLRVSATFWQNPRNHFRCQVQFYGLSENDEWTQDRAKPVTQIVSAEAWGRADCGFTSESYQQGVLSATILYEILLGKATLYAVLVSALVLMAMVKRKDSRG

What was measured:
[1] = target: HLA-A*0201 molecule (Homo sapiens, UniProt P04439, D140Y/D185E/D98H/E176V/E277Q/G131W/G231S/I119V/I121R/I166T/I218V/L300P/L318F/N151K/N90K/P208A/P217A/Q86G/Q94H/R138H/R169H/T345S); conditions: cited from earlier work
[2] = system: MHC/NYESO1-001 tetramer; assay: Tetramer staining of TCR-RNA-electroporated CD8+ T-cells, MHC/NYESO1-001 control tetramer; assay type: binding, human
Description: (§1) FIG. 8 show MHC/MAG-003 tetramer or MHC/NYESO1-001 tetramer staining of CD8+ T-cells electroporated with alpha and beta chain RNA of TCRs R7P1 D5, R20P1H7 and R10P2G12 (Table 2), respectively. CD8+ T-cells electroporated with RNA of 1G4 TCR that specifically binds to MHC/NYESO1-001 complex and mock electroporated CD8+ T-cells served as controls.
(§2) T-cell activation was further confirmed using a tetramer staining technique to detect MHC/MAG-003-binding activated cytotoxic T-cells. As shown in FIG. 8 and Table 11, a higher percentage of TCR-expressing CD8+ T-cells were stained positive fluorescent-labeled MHC/MAG-003 tetramer than that with MHC/NYESO1-001 control tetramer or mock control. […] The alpha and beta chains of TCR 1G4 are shown in SEQ ID NO:89 and 90, respectively: […]

[3] = system: SK-BR-3 (human breast cancer cell line, HLA-A2-negative and MAG-003-negative); assay: IFNγ release, TCR-expressing CD8+ T-cells co-incubated with SK-BR-3; assay type: cell-based; conditions: Example 4, SK-BR-3, compared with effector cell only control
Protocol: (§3) To determine efficacy of T-cells expressing TCRs described herein, primary CD8+ T-cells electroporated with RNA of the TCRs R7P1 D5, R20P1H7 and R10P2G12 were co-incubated with different human cancer cell lines, e.g., A-375 (human melanoma cell line, which is positive for HLA-A2 and MAG-003 expression), T98G (human glioblastoma cell line, which is HLA-A2-positive and MAG-003-negative), and SK-BR-3 (human breast cancer cell line, which is HLA-A2-negative and MAG-003-negative), followed by IFNγ release assay.

[4] = system: HLA-A*02 positive cell types from healthy tissues; assay: Safety: IFN-γ release upon co-culture with primary and iPSC-derived cell types from healthy tissues; assay type: cell-based, human; conditions: E:T ratio 1:1, 20 h, ELISA, normalized
Description: FIG. 13 T cells transfected with RNA coding for TCR R7P1 D5, R10P2G12, R20P1H7, mock or the control TCR 1G4 (SEQ ID NO:X) were co-cultured with different primary human healthy tissue cells (see table 13 for abbreviations), the target negative tumor cell line MCF-7 and the MAGEA4- and NY-ESO1-positive cell lines A-375 and NCI-H1755. TCRs R7P1D5, R10P2G12, R20P1H7 and 1G4 expression in T cells was achieved by electroporation using an RNA vector. […] E:T ratio 1:1, 20,000 cells each, mean of IFN-γ release after 20 h from replicates is shown as measured by ELISA. Error bars indicate standard deviations. Results were normalized by subtraction of IFN-γ release from TCR-transfected T cells only and IFN-γ release due to co-culture of Target cells and T cells not expressing TCR of interest.
(§4) TCRs of interest were expressed in human T cells via RNA electroporation and the T cells were assessed for IFN-γ release after co-culture with different target cells, such as T2 cells loaded with different peptides as well as tumor cell lines and primary cells from healthy tissues. T-cell activation data are shown in absolute IFN-γ levels or a normalized way as indicated below.
(§5) Efficacy of CD8+ T cells expressing TCRs R7P1 D5, R10P2G12 and R20P1H7 was determined by T cell activation studies (IFN-γ release) using different tumor cell lines as target cells. The characterization of the safety profile of TCRs of interest was approached by testing the potential activation of TCR-expressing T cells upon co-culture with isolated primary cell types from healthy tissues and induced pluripotent stem cell (iPSC)-derived cell types from HLA-A*02-positive donors (Table 13). Cell types were selected in a manner to cover most of the critical organs like e.g. brain, heart and liver and different cell types as epithelium, endothelium or smooth muscle. Tumor cell lines were analyzed side-by-side as positive and negative controls.
(§6) Normalization Method for IFNγ Release: Meannorm(TCRoi;co)=[mean(TCRoi;co)−mean(TCRoi;effector only)]−[mean(mock;co)−mean(mock;effector only)]
The respective CVnorm was calculated: CVnorm(TCRoi;co)=[CV(TCRoi;co)^2+CV(TCRoi;effector only)^2+CV(mock;co)^2+CV(mock;effector only)^2]^[½] TCRoi=effector cells expressing TCR of interest Mock=effector cells without exogenous TCR expression Co=effector cells co-cultured with target cells Effector only=effector cells not co-cultured Mean(norm)=mean IFNγ release (normalized) CV(norm)=coefficient of variation (normalized) Results: […]

[5] = target: T1, MHC/MAG-003 complex (Homo sapiens, UniProt P04439+P43358, D140Y/D185E/D98H/E176V/E277Q/G131W/G231S/I119V/I121R/I166T/I218V/L300P/L318F/N151K/N90K/P208A/P217A/Q86G/Q94H/R138H/R169H/T345S); assay: IFN-γ release assay: TCR-RNA-electroporated CD8+ T-cells co-incubated with peptide-loaded target cells; assay type: cell-based; conditions: target peptide (MAG-003) titration, IFN-γ release
T1 construct: endogenous in cells
Protocol: In another aspect, to obtain T-cells expressing TCRs of the present description, TCR RNAs were synthesized by techniques described in the art, e.g., in vitro transcription systems. The in vitro-synthesized TCR RNAs were then introduced into primary CD8+ T-cells obtained from healthy donors by electroporation to re-express tumor specific TCR-alpha and/or TCR-beta chains.
To determine specificity and affinity of TCRs, the transformed CD8+ T-cells were co-incubated with MAG-003-loaded target cells or with target cells loaded with homologous but unrelated peptide RABGAP1L-001 (SEQ ID NO:91), AXIN1-001 (SEQ ID NO:92), ANO5-001 (SEQ ID NO:93), TPX2-001 (SEQ ID NO:94), SYNE3-001 (SEQ ID NO:95), MIA3-001 (SEQ ID NO:96), HERC4-001 (SEQ ID NO:97), PSME2-001 (SEQ ID NO:98), HEATR5A-001 (SEQ ID NO:99) or CNOT1-003 (SEQ ID NO:100) or control peptide NYESO1-001 (SEQ ID NO:101), followed by IFN-γ release assay. Unloaded target cells and CD8+ T-cells alone served as controls. IFN-γ secretion from CD8+ T-cells is indicative of T-cell activation with cytotoxic activity.
As shown in FIGS. 5-7 all primary CD8+ T-cells transformed with TCRs of the present disclosure, after co-incubation with MAG-003-loaded target cells, released much higher levels of IFN-γ than that stimulated by unrelated peptide-loaded target cells, and the controls.

[6] = system: T98G (human glioblastoma cell line, HLA-A2-positive and MAG-003-negative); assay: IFNγ release, TCR-expressing CD8+ T-cells co-incubated with T98G; assay type: cell-based; conditions: Example 4, T98G, compared with effector cell only control
Protocol: as §3

[7] = system: human non-small cell cancer cell line, H1755 (NCI-H1755); assay: IFNγ release, TCR-expressing CD8+ T-cells co-incubated with H1755; assay type: cell-based; conditions: for T-cell activation (IFN-γ release): Example 6, NCI-H1755 expressing HLA-A*02 and MAGEA4
Protocol: as §3, §4, §5, §6

[8] = target: MHC/MAG-003 tetramer (Homo sapiens, UniProt P04439+P43358, D140Y/D185E/D98H/E176V/E277Q/G131W/G231S/I119V/I121R/I166T/I218V/N151K/N90K/P208A/P217A/Q86G/Q94H/R138H/R169H); assay: Tetramer staining of TCR-RNA-electroporated CD8+ T-cells, MHC/MAG-003 tetramer; assay type: binding
Description: as §1, §2

[9] = system: A-375 (human melanoma cell line, positive for HLA-A2 and MAG-003 expression); assay: IFNγ release, TCR-expressing CD8+ T-cells co-incubated with A-375; assay type: cell-based; conditions: for IFNγ release: Example 4, A-375, HLA-A2-positive and MAG-003-positive; for T-cell activation (IFN-γ release): Example 6, A-375 expressing HLA-A*02 and MAGEA4
Protocol: as §3, §4, §5, §6

Molecule	binding affinity and stability towards HLA-A*0201 molecule [1]	% NYESO1-001 TET-positive primary CD8+ T-cells [2] [%]	IFNγ release [3]	T-cell activation (IFN-γ release) by healthy tissue cells [4]	T-cell activation (IFN-γ release) by healthy tissue cells ([4]; listed as R7P1 D5)	EC50 [5] [nM]	IFNγ release [6]	IFNγ release ([7]; Example 4, H1755, data not shown)	T-cell activation (IFN-γ release) [7]	% MAG-003 TET-positive primary CD8+ T-cells [8] [%]	IFNγ release [9]	T-cell activation (IFN-γ release) [9]
YLLEHVVRV (listed as Homo sapiens) [p286-1Y2L]	potent binding affinity and stability	–	–	–	–	–	–	–	–	–	–	–
B1	–	0.87	basal levels of IFNγ release	did not lead to significant TCR-mediated recognition and T-cell activation	no activation was observed	~3	basal levels of IFNγ release	increased IFNγ release	activity	7.99	IFNγ release was observed	activity
B2	–	0.87	basal levels of IFNγ release	no activation was observed; also recorded: did not lead to significant TCR-mediated recognition and T-cell activation	–	–	basal levels of IFNγ release	–	activity	5.38	IFNγ release was observed	activity
